Measured values published in the supplement of paper PMC12042874.
± gives the uncertainty stated by the source.

Experiment: amyloid nucleation score (Sup35N fusion, yeast selection) (log enrichment); library NNK3; higher = more nucleation; inactive = no reads after selection
Method in brief: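 Libraries of peptides of 20 random codons fused to Sup35N were expressed in psi-negative yeast and induced 24 hours with 100 μM copper sulfate. Selection was 7 days at 30°C on medium lacking adenine and uracil, and plasmid inserts were Illumina-sequenced before and after selection. Nucleation score is the DiMSum log enrichment of output over input reads, centred on the mode score of non-aggregating sequences, and sequences with under 100 input reads were left out.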

Substance	amyloid nucleation score
AACHINNICKSLVL	inactive
AANLDYSRLLEVLE	inactive
AAPCFVKLLHGLVVRVQVVM	inactive
AATYTTYHLESSNVYSFNFW	2.96 ± 0.048
AAYAALQMSK	inactive
AAYADR	0.008 ± 0.48
ACFLIYYLR	inactive
ACGFSFF	-0.264 ± 0.98
ACLFCLGDWEGFVSD	inactive
ACRGLVDVNNWLSGYGIRIG	inactive
ACTLLCFRIAQLEFLWVRVD	inactive
ACVRKIIKVGYFYERISIRV	inactive
ACVSGIIFLLREQLLKMSGI	inactive
ACYFWFNINIEHAR	1.78 ± 0.11
ADCGHLTYLSSNSRSLGRRK	0.197 ± 1
ADERRVIR	inactive
ADIRFKMRENDMFWSNGWGH	inactive
ADWYWFMAMQRNNLL	inactive
AEGLCCMANLWSCAGSRTYT	0.947 ± 0.13
AESEVDKCLDRGYGAEKTCT	inactive
AEWFAKLLASTMGLIFERRW	inactive
AFAFYSD	inactive
AFKGRLLG	inactive

Substance	amyloid nucleation score
AFLGEEVNSTLLKS	inactive
AFLSMSGNLLVVYSGEGGSP	-0.027 ± 0.35
AFQMCATGRRIDTGDVSFVV	inactive
AFRGCSSLYS	inactive
AFRTFSFLGITS	inactive
AFTHVTSVMTVQDSLGLCLL	inactive
AFVDAQQVNGLYGWYDSKCD	inactive
AFVRMLW	1.49 ± 0.13
AFYCVSGIDYVS	inactive
AGAVYVTAPLIAREDVVACY	inactive
AGFRKTMWCIQPVSFLLLKF	1.74 ± 0.1
AGGAMGVHRCPLLS	inactive
AGNAFVDR	inactive
AGVIAWVYSSG	inactive
AGVVHRWGLQCFSLNFECGC	2.08 ± 0.079
AHFLLCNLA	inactive
AHGFLSVFV	0.92 ± 0.12
AHITRGNKSGAVFASCRTWS	inactive
AHKIVFELTYTVLS	inactive
AHLTSVYVKTPSFEINISNK	inactive
AHSRWVSQCDITR	inactive
AHWSEYDAKFTKRLV	inactive
AICVLRSMKLLYQVWTW	inactive

Substance	amyloid nucleation score
AIIVCDC	inactive
AIIVQLIDLLMRPARPVFVE	inactive
AIPLYWIEFRVRKLSSLFLQ	inactive
AIVCMHYQVVHCVKVSTCCY	inactive
AKAEC	inactive
AKARMNGEDGARLTSMHSLY	inactive
AKMNYKLWRDVA	inactive
AKTSRMNFKNNFMCQGCKWS	-0.604 ± 0.88
AKVRLDGSIGEVHFMELVSY	inactive
ALCCVRPFGNEDKREVMYSN	0.604 ± 0.24
ALDMVLYL	inactive
ALGIICVGLAFDGSLDLTS	1.25 ± 0.15
ALIKFLEFKGRSAWSMRFIA	inactive
ALIYNATGLTYF	inactive
ALLFHLG	inactive
ALMRVSSLCHLSGKVCLTLA	inactive
ALNFPYSSRVFYFKDSAHAF	inactive
ALNWISYREMHIFIAYFADS	inactive
ALSNYVFLEVTLQTWVVIEV	inactive
ALSYLSVLRSMLSRVVLCYL	inactive
ALVCYK	inactive
AMCALVSIRP	inactive
AMFFYRWRCVGTGSFVMTGV	inactive

Substance	amyloid nucleation score
AMILVRVYGVKRVWAYLLVW	inactive
AMKPMKNRSASLVGN	inactive
AMLLGFLGCGCKLHACCDY	inactive
AMMHNIILFKFVLGYVLMSR	inactive
ANCSWWSWESMNCCYIGWIF	1.54 ± 0.071
ANGNNSLTATLTNAVD	inactive
ANKSCGHVDWDIGESYMARL	inactive
ANLIIVSVHFPRITTCYNNP	1.95 ± 0.068
ANRKSRVKSEEWAEVNGCWG	inactive
ANSSRDMCSLLVLVRGTQ	-0.385 ± 0.96
ANSWIILHSNHFLQFVGIAS	inactive
ANSWSMLHVECFYML	2.44 ± 0.058
ANVCGVL	inactive
ANVRMS	inactive
APDFATIFITRWGDIQTLLV	inactive
APENKVYVRAQVKTACKFRG	0.213 ± 0.81
APFRMLAFGMWEALMAGSNS	inactive
APRRHVKGDSHIRWCVRDR	inactive
AQAVHAEVVQFILYFGESPL	2.47 ± 0.08
AQFGQTWFANFTSVFYCWSE	2.06 ± 0.064
AQGVTHLWEARNLWVWVEDQ	-0.316 ± 0.51
ARATALAVFCIGTDYGSIES	-0.319 ± 0.37
ARLEMVFLPSPIFVNRPGNA	inactive

Substance	amyloid nucleation score
ARLSEAVLGNVSDIGRVCNL	inactive
ARQYAIRWMWSVVIDGGEKS	inactive
ARYETRMYKFKNTPGVAERR	inactive
ARYRHGFTALRND	inactive
ASFLVYGP	inactive
ASGVATSFGFRLWSCVEDIE	inactive
ASLRDAPILYDASE	inactive
ASRKVTRVVMHINLRLWYET	inactive
ASRPFFRPVRQVSEVLPGQW	0.058 ± 1.1
ASSLVVVCDAMSEASVLNKG	inactive
ASTLLHYCLLNSGYEWSGQC	0.251 ± 0.81
ATEDPKLESGCVAEIVPFRG	-0.481 ± 1.4
ATELYLGVICNKMRW	inactive
ATGDNNLGIMAMALYT	inactive
ATNLSYLNSAQVWLLT	inactive
ATYAGSVITGLCEDTLYRNC	inactive
AVCCCGRNIHMRSCRPGTTL	0.531 ± 0.16
AVDLNVTLQWVCSRGRRWVF	0.051 ± 0.3
AVFGCFWFAMGLSFLYAKSL	inactive
AVHFGLYFLMRVITMC	inactive
AVIFFYRVISFLRWSFTLPV	inactive
AVLKILFVRPCYVINMSLKY	0.199 ± 0.64
AVMLREITNIRTKRSRNAMM	inactive

Substance	amyloid nucleation score
AVNCESSCCECYGTFMDKPV	inactive
AVRVEVLGLWYHLKCCWCFL	-0.755 ± 1.9
AVSLTW	inactive
AWAVEATRFILLRWGQGTWD	-0.247 ± 1.3
AWCKGV	inactive
AWMCIHLYICCMILCGRRGW	inactive
AWMVFCPCKMCMCRCYL	1.41 ± 0.073
AWSVIMCFIWNRCKRRSS	inactive
AYADHHYRAGLRFPAGEVYW	inactive
AYCGACFNLSAYTSKCLELM	inactive
AYGRVTMCIGWKDPYGRCL	0.638 ± 0.31
AYIDNRSYVCDALKCLW	2.92 ± 0.055
AYKMTFWVQNYVFVYSFLFV	0.419 ± 0.23
AYNLSLNYDGHSSYWYFHTT	-0.134 ± 0.38
AYQCHDDVVWWRCQMASCS	inactive
AYRAITGSCVMSEVRGAWRL	inactive
AYRRKLISGFIWERFLFRCG	inactive
AYRYTHVCDMVLKWAVCCFY	inactive
AYSSQSTCTFCASIFSDSKI	2.68 ± 0.077
CACIPNFPCKSYHYWRSCNI	inactive
CAIRDS	-0.647 ± 0.41
CANCMNNVCVSCGCSLQLTL	2.89 ± 0.054
CAQARSRFTYQSAHR	inactive

Substance	amyloid nucleation score
CAQTYPIRMYS	inactive
CARRNLAVNYKYWFVGEHYI	inactive
CAVGISLRPFFMISLQLSYL	inactive
CCARGGRVCRQLGLVSYTNV	inactive
CCAYFVGLGCVQLTKWFSLL	inactive
CCEFC	inactive
CCFNMW	1.46 ± 0.09
CCFPVVRKPFG	inactive
CCGQIADSFLPKSSRGEVRN	inactive
CCITFLLSDLAMSYYVRYNR	0.484 ± 0.12
CCIYQHIFYMRTYCIRT	inactive
CCMLC	-0.309 ± 1
CCSSCVWGRVFRSSAMPPRI	inactive
CCVDPLAELLICMTALIASR	inactive
CCYATSLYINDDATIIVNLM	2.74 ± 0.072
CDAAWPVNSPFWYLFLWC	inactive
CDFGFRMEEESLQRR	inactive
CDFYVNGTGPSETRWNSKEH	inactive
CDIRFIYESYVSDNDGVLLH	inactive
CDSTPYFLMGSWLG	inactive
CDSTSITWGHVLWFYINYWM	inactive
